Data on one substance can be found in PMC2749211.

Broadly, the stoichiometry N is a count of units in the complex or per binding partner.

This assay concerns the target SMU.440, hypothetical protein from Streptococcus mutans (Streptococcus mutans). As to the kind of experiment: SEC; gel filtration on HiLoad Superdex 75, 20 mM Tris-HCl pH 7.5, 150 mM NaCl. A general note: SEC sorts molecules by how far they enter the pores of the column.

“SMU.440, hypothetical protein from Streptococcus mutans (natural protein)”: the stoichiometry N was found to be 2.
